Data from CN111875700A (CUSABIO BIOTECH CO LTD, dated 2020).

Biological target: T1, SARS-COV-2病毒N蛋白 (nucleocapsid protein) (SARS-COV-2, UniProt P0DTC9 1-419)
T1 construct: Recombinant N protein; also called 核衣壳蛋白
Assay: ELISA of scFv supernatants on coated N protein, detected with anti-E/HRP

B1: 1A6单链抗体 (1A6 scFv) (scFv)
scFv: EVKLKESGAELVKPGASVKLSCTASGFNIKDTYMHWVKQRPGQGLEWIGYINPSTGYTEYNQKFKDKATLTADKSSSTAYMQLSSLTSEDSAVYYCARDALGWYFDVWGAGTLVTVSTGGGGSGGGGSGGGGSDVVMTQSHKFMSTSVGDRVSVTCKASQNVGTNVAWYQQKPGQFPKALIYSASYRYSGVPDRFTGSGSGTDFTLTISNVQSEDLAEYFCQQYNSYPLTFGAGTKLEIK
notes: also called 1A6 single-chain antibody; not shown: E-tag from vector pCANTAB5E (detected with anti-E/HRP)
B1: binds.
